Assay results as given in the DeepSol protein solubility set.

Experiment: soluble on expression in E. coli; label from the status in PepcDB or PDB records

| Sequence | soluble on expression in E. coli |
| --- | --- |
| MKIPSVFMLEQQKASLQLHVKQLANEAIQKSAPSAWFEVLYAEAQGDTTQIPWAKLTPHPYLQEWLTNHQPFPSGQKALVIGCGLGDDAEALAKLGFAVTAFDISPTAIAWCGQRFPNSNVNYIVADLLAIPPQWHLAFDFVFECRNIQALPLNIRAEVITSIASVVAPDGTLLLINRVRLEHHHHHH | not soluble |
| MKIQDLLKKEVMIMDLKATSKEAAIDEMITKLVDTGVVTNFAIFKDGIMKREAQTSTGLGDGIAMPHSKNAAVKEATVLFAKSASGVDYEALDGQPTDLFFMIAAPDGANDTHLAALAELSKYLLKEGFADQLRQAKTPDDIIATFDS | soluble |
| MKIQFNRFLTRSLLTAALTGAASMAAAATMEVYKSPTCGCCAKWVDHMRDNGFTVNIHDIGNDEARAEAGILPELGSCHTALVNGYAIEGHVPADDIKQLLKERPRAVGLSAPGMPHGSPGMETGRVDSYNVLLIRKPGDKRSATEIYNRYGPGKSGAAEKTSENSTTDSVLRLK | not soluble |
| MKISEIENTFKEKLSVSLKKQEDTIRRQSLAENQGKLEVMENMNRVLSEAIESLQSQHSKDTEIIKAGLRTKGDRVTYVDNLRVEKKALEETVSQLRSENDKLKKIIRGESTNKPVLRSRTTKP | not soluble |
| MKIVKDFSPKEYSQKLVNWLSDSCMNYPAEGFVIGLSGGIDSAVAASLAVKTGLPTTALILPSDNNQHQDMQDALELIEMLNIEHYTISIQPAYEAFLASTQSFTNLQNNRQLVIKGNAQARLRMMYLYAYAQQYNRIVIGTDNACEWYMGYFTKFGDGAADILPLVNLKKSQVFELGKYLDVPKNILDKAPSAGLWQGQTDEDEMGVTYQEIDDFLDGKQVSAKALERINFWHNRSHHKRKLALTPNF | soluble |
| MKIVLAYSGGLDTSIILKWLKETYRAEVIAFTADIGQGEEVEEAREKALRTGASKAIALDLKEEFVRDFVFPMMRAGAVYEGYYLLGTSIARPLIAKHLVRIAEEEGAEAIAHGATGKGNDQVRFELTAYALKPDIKVIAPWREWSFQGRKEMIAYAEAHGIPVPVTQEKPYSMDANLLHISYEGGVLEDPWAEPPKGMFRMTQDPEEAPDAPEYVEVEFFEGDPVAVNGERLSPAALLQRLNEIGGRHGVGRVDIVENRFVGMKSRGVYETPGGTILYHARRAVESLTLDREVLHQRDMLSPKYAELVYYGFWYAPEREALQAYFDHVARSVTGVARLKLYKGNVYVVGRKAPKSLYRQDLVSFDEAGGYDQKDAEGFIKIQALRLRVRALVEREGHGA | soluble |
| MKIVRRDFVRNGPGSVKMVAEDSDDLWYAYNLIAVGDSVMAVTFRKVQREIPGGGRDSERVKLKLEVQVEEVDYDKDGSVLRIRGKNILENEHVKIGAFHTLELELKRPFVLRKEMWDSMALDTLKQASDPAASADLAVVLMQEGLAQIFLVGRSVTSSRARIETSIPRKHGPAIAGYESALKKFFENVLQAFVKHVDFSVVRCAVVASPGFTKDQFHRHLLLEAERRQLRPIIENKSRIILVHTNSGYRHSLGEVLHAPNVMNMIKDTKAAKEVKALNDFHNMLSTEPDRACYGPKHVEVANERMAIQTLLITDELFRNSDVKTRKKYVNLVESVKDSGGDAFIFSAMHVSGEQLAQLTGIAALLRFPLPELEDIEM | soluble |
| MKKALFLVGLVFTAGVISSCGGVSSQRTYEGAAVGAAVGAAAGVLLDKENRWRGGVIGAALGAILGGTITEIAQRAAKEAAQNNKPVVYRAEDGSQMVRAEPVEKRGNCTLVKTKYYQNGKLVKVEEKEVCE | not soluble |
| MKKARRRIDVDELFEGVRRGDRTLISRAITLLESTAPAHRVLAQELLVKLLPFSGKALRVGITGVPGVGKSTFIEALGMKLIGDGHKLAVLAIDPSSTKTRGSILGDKTRMAKLAREDNAFIRPSPSAGTLGGVAKATRESMVVFEAAGYDVILVETVGVGQSEVAVSQMVDCFTFLALAGAGDQLQGIKKGILEMADLVAINKADGPNLKNAKRAARELAAAMRMVRQENDLWHPPTITMSAVEHEGVDEFWEHVQNHNKAMLESGVFEHNRREQQVQWMWSMVHETLLQRLNTDPNVVEVKKLVEDQLRHAHITPTLAAERILKAFDHVTAD | not soluble |
| MKKDITLFTSARPELKFFRLSECKEHLDTAAMWAKNAWGYMHLDDEQFHYKQLQELCEHVYIAMYDGLPVGMLAVIEKTLSLEENREESSEKIVEEPSTPEITEMKNAYLDYVYIDERARSIGLAGIIIEKAKNLAREMNAEVMSLETLNSTLNGFYKRKGGRVICEGRYNDSYPTEVMRLRF | not soluble |
| MKKEANFDEVLFSLGQEVIQVLIRRGASLEDAQDAVSQTYTTIFSILPEITSENLRPWFFRVTFNYYITMYRKKKRERTFVANSHPVQSIEKMEGQELLLLIDSLKDEEQELVLLKYYYQLSYAEIALILELSVENVRKKLYRTRQKLKKELEE | not soluble |
| MKKEEMDVVSLRIIKLYFLGIRELNFPDYNKRFQQKDMELFIQLADMMENLPNLDEQLIYELEELKDYLFYVKTEKYSLTVHDMFLEMKSELEKII | not soluble |
| MKKESQVIFDKNVIEFVTVAAEFCAFLERAESMKRSTFVDTTLKILPLLYLKASMLPKCEMIGDESPETYVTEEIYEVLRINLASILAEKDDYLEVFLPDMAYSDEPIKKNISEDLADIYQDIKDFIFVFQLGLNETMNDSLAICQENFGLLWGQKLVNTMRALHDVKYSPKARLEHHHHHH | soluble |
| MKKETLYVAFSTQKGGVGKTTFTVLVASYLYYLKGYNVAVVDCDYPQHSISAMRKRDAEQVNGDDYYKQLAFSQFKTLGKKAYPVLCSSPDEAIKTADEFLASAGSDYDVVFFDLPGTVNSEGVINSLSGVDYIFTPIAADRVVLESSLSFAVAINKLLVKNEACRLKGLHLFWNMVDGREKTDLYTLYEQTIGELELPLMKVFIPDTKRFKKELDAQRKTVFRSTLFPADKRLVKGSNIEELITEIAYLIKL | soluble |
| MKKFVALILGCITICGLYGCSKNSSQIINKTFSLPAYNRIEIDSANDDIKIISGKHYRVRYVGQNKLKPTIKVKNGVLVIDSPKKSTIINSNIFGSKNIKQTLTIEMPKKELKYLSVDTSNGDVSVDYLEVQKGTIDTSNGNVNLKNLITKKDFEIDTSNGTVKVGKSNVEGYALSTSNGSIVVKGENKSDEFEKNTSAKNVLSIDTSNGNIYVNLEHHHHHH | not soluble |
| MKKGIDIGGTFIKVLWEDGKKEKHYIKDLKKDREALMEKIREVIKAGNPSGVGIAVAGFTSLNGIVYKSPNIPALDKTDFRKVLEDINIPFVVGNDVNLGAFGEWYYDYRDSKILLLVAVGTGLGTGLVYKGEVFFGVCGSALEMGHHTVKKGGELCNCGRKGCWEAYCSSYAIEREYKKLTGRTLKDYEIAEKAKEGEEEALKVVESFKDYLITGLMNGVHIFNPDRIVLAGGVIETFKEFLRDVPEKVKEISEELPALCLKISFSRAGEFMGARGALAYALKYLLEHHHHHH | soluble |
| MKKGLKMRALERSDLRFIHELNNNRNIMAYWFEEPYESYDELEELYRKHIHDDAERRFVVEDADGILIGLVELIEINYIHRSAEFQII | not soluble |
| MKKHHHHHHLVPRGSIPHLILELLKCEPDEPQVQAKIMAYLQQEQANRSKHEKLSTFGLMCKMADQTLFSIVEWARSSIFFRELKVDDQMKLLQNCWSELLILDHIYRQVVHGKEGSIFLVTGQQVDYSIIASQAGATLNNLMSHAQELVAKLRSLQFDQREFVCLKFLVLFSLDVKNLENFQLVEGVQEQVNAALLDYTMCNYPQQTEKFGQLLLRLPEIRAISMQAEEYLYYKHLNGDVPYNNLLIEMLHAKRA | soluble |
| MKKIAIFGSAFNPPSLGHKSVIESLSHFDLVLLEPSIAHAWGKNMLDYPIRCKLVDAFIKDMGLSNVQRSDLEQALYQPGQSVTTYALLEKIQEIYPTADITFVIGPDNFFKFAKFYKAEEITERWTVMACPEKVKIRSTDIRNALIEGKDISTYTTPTVSELLLNEGLYRETLSGK | soluble |
| MKKILLMLSLLFFTTAGFSEVSDTLVTGGYDKQAMSDAIKHARKETDKFIEVMNKKDADTFAVKAPITDHGRTEHFWLTDVTYSNGMFIGVISNDPGIVTNVEYGQEWKIKKEDISDWMYTRGDKIYGGYTIDPLLVTYPKEEADELRAKLVR | soluble |
| MKKLFGVGPDLLGDGKVLFEWSPKGNFLAAAGSKRKVNIFDRNGRLYDEVHFPPAEYPNPDGRACAAAQMQWDPAGEQLAILPAGNTHVFIWLAGNKEVQKIESEFKTQEFSCMAWSRNGMYLGVATVKGNVMMYNARERKKTPLVGKHTKKIVAAAWNKDNIMALAGQDKTVTLTDGVTGDTIKTFHLKDVPMDLCVSDKKEDGYSRREENTYSLNINRKTLYIMQCTAEGDRPLELAFLDTYGPIMKHSWFGDGYILLGYKNGYVAVVSSHSREISEEVHSGKYLDTLTDVTYCASLGRVAMAGANCVRVLDANADYNEIKGDAVDLDANQAIEKVGWTKDGQVLTVGTHNGYMHSFLASLPMVYDFHGTRVLYLTSLLEMTLLDVSRRQTVARIELENEPAFCGLGPSHAAVGMNNQAAFYSLGEKVGKVVQRREYLGTITAIKLNETQAAVLTGGHVVVHPISVEAGHAPDELDVVIPGPGQPANITCVALTPTFVITGSRTGTLSYYLSPDVTPVNEFRHDDGGIVRLFPQATGARLVFEDDKGALHLFNPVNDHVVAVPYTGRAETVMWDTSDTNVMVIGDGTALHSFLYVPVSLTGPQVQDLGKQAVPATHTPLTVCNGVVGCRLKSGAMDNVTLESHKMLQPGDAVARAAPAKRFAAALKLYKLRDAVECAKQLRQVESWRTLALAALDVLDIDTAINAYREIGDASMVLSLERVRQHEDRNLLSAHIMVLLEKDYGQAQELFLRSSVPRAALEMRMDLKHWTDALKLAEQLDPDAIATICKEHGAMLEMTGEYSNAKSHYQQALDALAVSVGPAQPDLEAACKAGIARTTLQLGDLRQGRQLAMQLNSQTLFKECALILEGLQQLTEAAEMYERAGQFERAASIYIQTKNFAAAAPLMARISSSKLQLQFAKAKEAEGRWQEAAAAYEAAGDMDAVVRLCLERLSQPQRAYAIVRKTQSVEAANQLSRFCLQSQDFGGAVEFLLMAGQMDQAFDIAMGHNEMDTFARIVAASAKPVDYQRIAQYYESRGEYDKAADMWSKCDQAPRAVQLYLKVGTNPALEKAVQVVEQTRSHQLGVLVLDYVNEEKDGTTRDEFRFKLNIAMGQFAEAARDALEMARFEQEEGNYRVAHDKLFGTVKQLEALNTKPPGELLRALMLLHSYTLVKSLIAINDHTTAARMLVRVARNISKFPKHIVPILTSTVIECHRANLKKTAFEYASMLMRPEYRDQVAVKYKKKIELMVRKPEKDPEELEEPLADCPFCNMPGPETELQCISCQNILPFDLATGKRMVLSDWAECPGCKFPASASQFIRIISAEGRCPM | not soluble |
| MKKLLVIRNDKIGDFMLCFPAFMMLKQSMPNIEITALVPNYTAPLAELCPAIDHLIIDNTDKQDPIAFKQVQQAVQNGQFDAVICFVSSWYNAKLTWQSGIRYRLAPATKLFQFLYNHRLTQRRSQSIKAESEYNLDLARAFLIDHHMMPVEPQLEHHHHHH | soluble |
| MKKLYIITGPAGVGKSTTCKRLAAQLDNSAYIEGDIINHMVVGGYRPPWESDELLALTWKNITDLTVNFLLAQNDVVLDYIAFPDEAEALAQTVQAKVDDVEIRFIILWTNREELLRRDALRKKDEQMGERCLELVEEFESKGIDERYFYNTSHLQPTNLNDIVKNLKTNPRFIFCMAGDPLEHHHHHH | soluble |
| MKKQQFIDMQEQGTSTIPNLLLTHYKQLGLNETELILLLKIKMHLEKGSYFPTPNQLQEGMSISVEECTNRLRMFIQKGFLFIEECEDQNGIKFEKYSLQPLWGKLYEYIQLAQNQTQERKAEGEQKLEHHHHHH | soluble |
